This is an account of results in patent publication US9623039B2, “Treatment and prevention of pathological conditions using iduna related techniques and compositions” (VALTED, LLC, priority 2010, dated 2017).

The test system of one assay is PAR polymer. Kind of assay: EMSA for PAR binding. From the text: PAR binding is specified by a sequence of approximately 20 amino acids containing N-terminal basic amino acids and a C-terminal region containing alternating hydrophobic and basic amino acids (FIG. 24). Iduna contains a predicted PAR polymer binding sequence within amino acids 144-167 of the WWE domain (FIGS. 1 and 24). The PAR-binding domain was defined by comparing to the consensus sequence for PAR-binding and the known PAR binding domain of Histone 3 (FIG. 24). HEK293 cells were transfected with GFP, GFP-Iduna lacking the WWE domain (GFP-IdunaΔWWE), GFP-Iduna lacking the RF domain (GFP-IdunaARF), and full-length GFP-Iduna, followed by immunoprecipitation with a GFP antibody. […] Only GFP-Iduna-ARF and full-length GFP-Iduna can co-immunoprecipiate PAR binding proteins (FIG. 25). The critical amino acids in the PAR binding domain, 156Y and 157R, were mutated to 156A and 157A in full length Iduna (Iduna-YRAA). […] Similar results are obtained with a biotin-tagged PAR polymer followed by detection with an anti-biotin antibody (FIG. 26). […] Histone H3 is a known PAR binding protein and was used as a positive control for the PAR overlay assay. […] An assay based on electrophorectic mobility shift (EMSA) for PAR binding was developed to monitor PAR polymer binding to Iduna. […]
On the technique in general: Mobility shift assays separate free from complexed probe on a gel.

The test system of a further assay is MCF7 cells. Kind of assay: MNNG cell death assay in stable MCF7 cell lines. The assay is classed as cell-based, human. The note with it: MNNG 500 μM 15 min, 24 hr. As to the method:
Cell death assay. GFP, GFP-Iduna, GFP-Iduna C60A, GFP-Iduna YRAA, shRNA-Iduna and shRNA-Iduna/GFP-Iduna stably transfected cells were treated with 500 μM MNNG for 15 min, and replaced with fresh growth media. After 24 h, the cells were stained with […] Hoechst 33342 (Invitrogen) and […] propidium iodide (PI) (Invitrogen) and counted by automated computer-assisted program (Carl Zeiss). The percentage of cell death was determined as the ratio of live to dead cells compared with the percentage of cell death in control.

The nature of assay [1]: Intrastriatal NMDA lesion in Iduna transgenic mice. The assay is classed as in vivo, mouse. The note with it: Iduna transgenic mice vs littermate wild type, intrastriatal NMDA 20 nmoles. From the text:
To determine whether Iduna is protective in vivo, transgenic mice overexpressing Iduna were generated by knocking in Iduna into the ROSA26 genomic locus resulting in a four-fold expression over wild type littermate mice (FIGS. 58-60). NMDA induced lesions are reduced by approximately 80% in the Iduna transgenic mice compared to littermate wild type control animals following an intrastriatal injection of NMDA (20 nmoles) (FIGS. 61 and 62).
Transgenic Mice: ES cells were targeted and screened as described in Soriano et al. Briefly, the pROSA26PA-iduna plasmid was linearized with KpnI and electroporated into ES cells derived from mouse strain 129SvEv. Twelve of 277 G418-resistant colonies had undergone correct homologous recombination, as determined by Southern blot and PCR of the ROSA26-Iduna allele. Two of these ROSA26-Iduna ES clones were injected into C57BL/6 blastocysts. Resulting chimeras were bred to C57BL/6 mice and offspring were tested for germline transmission. Heterozygous mice for the Rosa26PA-Iduna allele were crossed to Nestin-Cre^(+/+) mice (on C57BL/6 background), which were obtained from the Jackson Laboratory, to obtain ROSA26PA-Iduna^(+/loxP)/Nestin-Cre^(−/+) mice. Nestin-cre/ROSA26PA-Iduna transgenic mice, in which Cre recombinase expression is under the control of the nestin promoter, specifically expresses Iduna in brain. […]

B1: Iduna: novel NMDA-induced cell survival protein, PAR-dependent E3 ligase; 359 amino acids (protein)
chain: MEMAGCGEIDHSINMLPTNKKANESCSNTAPSLTVPECAICLQTCVHPVSLPCKHVFCYLCVKGASWLGKRCALCRQEIPEDFLDKPTLLSPEELKAASRGNGEYAWYYEGRNGWWQYDERTSRELEDAFSKGKKNTEMLIAGFLYVADLENMVQYRRNEHGRRRKIKRDIIDIPKKGVAGLRLDCDTNTVNLARESSADGADSGSAQTGASVQLAVPSSTRPLTSVDGQLTSPVTPSPDAGISLEDSFAHLQLSGDSIAERSHRGEGEEDHESPSSGRVPDTSVEETESDASSDSEDAPVVVAQHSLTQQRPLVPNGNQTVADQSDRSGTDRSVAGGGTMSVNVRSRRPDGQCTVIEV
Regarding B1, the “PAR polymer mobility shift” value in the assay on PAR polymer is on record as “retards the mobility shift of PAR polymer”. Also, in the assay on MCF7 cells, the MNNG-induced cell death result is reported as “dramatically rescues MCF7 cells from MNNG-induced cell death”. Further, the “reduction of NMDA induced lesions” value in assay [1] is “approximately 80%”.
